This is an account of results in publication PMC12148439 (2025).

Assay [1] has as its target T1, CitAGacS649 (chimeric protein: GacS649 with its PDC domain replaced by the PDC domain of CitA from K (Pseudomonas aeruginosa | Klebsiella …, UniProt P52687 55-173, amine-reactive AlexaFluor 488 label (in the MST))). Nature of the assay: MST; no citrate.
Assay [2] has as its target T1, CitAGacS649 (chimeric protein: GacS649 …). The assay is described as follows: MST; 0.01 M citrate.

B1: RetSHK (histidine kinase region of the sensor histidine kinase RetS, residues 413-649) (domain or fragment)
chain: QTKAEFLAKISHEIRTPMNGVLGMTELLLGTPLSAKQRDYVQTIHSAGNELLTLINEILDISKLESGQIELDEVQFDLNALIEDCLDIFRVKAEQQRIELISFTQPQVPRVIGGDPTRLRQVVLSLLDNAFKQTEEGEILLVVALDDQGETPRLRIAVQDSGHPFDAKEREALLTAELHSGDFLSASKLGSHLGLIIARQLVRLMGGEFGIQSGSSQGTTLSLTLPLDPQQLENPTA
What is called Kd is the free concentration of one partner at which half of the binding sites on the other are occupied at equilibrium, for simple one-to-one binding. High values mean lower affinity, low ones higher affinity. In the case of B1, the Kd in assay [1] came to 11 µM; in assay [2], 46 µM.
